The target of assay [1] is T1, EGF receptor on fixed A431 cells (Homo sapiens, UniProt P00533).
T1 construct: Confluent A43 1 cells were fixed in 96-well microtiter plates using 0.05% formaldehyde; endogenous in cells; host or cells: A431 cells, formaldehyde-fixed
Description: Receptor affinity: binding to fixed A431 cells. Conditions: 1 nM, 2 hr at 37° C. The procedure: Confluent A43 1 cells were fixed in 96-well microtiter plates using 0.05% formaldehyde for 10 min at room temperature, then washed 3× with 200 μL PBS with 0.1% bovine serum albumin (BSA).
The wells were then washed 3× with 200 μL of PBS/0.1% BSA, detached, and counted in a gamma counter.

The subject of assay [2] is Human foreskin fibroblasts. As to the kind of experiment: Mitogenicity: 3H-thymidine incorporation. Type of assay: cell-based. The procedure:
Mitogenicity was assayed substantially following the method described by D. J. Knauer et al, J Biol Chem (1984) 259:5623-31.
Human foreskin fibroblasts were obtained and frozen at the thirteenth passage. Thawed cells are trypsinized, pelleted, and resuspended in a medium containing DMEM, 5% FBS, 1 mM sodium pyruvate, 300 μg/mL L-glutamine, 100 U/mL penicillin, and 100 μg/mL streptomycin. The cells are counted using a hemocytometer and 0.4% trypan blue. The cell concentration is adjusted to 1×10^-5 cells/mL using the same medium, and dispensed onto microtiter plates (100 μL/well). The plates are incubated for 5 days in a tissue culture incubator.
EGF muteins prepared in Example 1 and native sequence EGF are dissolved to make 100 μg/mL solutions. These solutions are used to make serial dilutions of 20, 10, 5, 2.5, 1.25, 0.625, 0.3125, 0.15625, 0.078125, 0.0390625, 0.0195, and 0.00975 ng/mL. Ten μL of each dilution is added to a microtiter plate well, and the plates returned to the incubator and incubated at 37° C. for 18 hours. […]
The well contents are then solubilized using 0.3 N NaOH (50 μL/well) for 30 minutes, and transferred to scintillation vials. Scintillation fluid (Ready-Solv EP, 4 mL) is then added to each vial, and the vials counted for 1 min with a 0-1,000 (^3 H) window in a Beckman LS3801 counter.
In general terms: Dividing cells build labelled thymidine or BrdU into new DNA.

B1: .phi.EFG: EGF with N-terminal flag extension, additional sequence DWKDDDDK (protein)
chain: DWKDDDDKPQHWSCPEGTLAGNGNSTCVGPAPFLIFSHGNSIFRIDTEGTNYEQLVVDAGVSVIMDFHYNEKRIYWVDLERQLLQRVFLNGSRQERVCNIEKNVSGMAINWINEEVIWSNQQEGIITVTDMKGNNSHILLSALKYPANVAVDPVERFIFWSSEVAGSLYRADLDGVGVKALLETSEKITAVSLDVLDKRLFWIQYNREGSNSLICSCDYDGGSVHISKHPTQHNLFAMSLFGDRIFYSTWKMKTIWIANKHTGKDMVRINLHSSFVPLGELKVVHPLAQPKAEDDTWEPEQKLCKLRKGNCSSTVCGQDLQSHLCMCAEGYALSRDRKYCEDVNECAFWNHGCTLGCKNTPGSYYCTCPVGFVLLPDGKRCHQLVSCPRNVSECSHDCVLTSEGPLCFCPEGSVLERDGKTCSGCSSPDNGGCSQLCVPLSPVSWECDCFPGYDLQLDEKSCAASGPQPFLLFANSQDIRHMHFDGTDYGTLLSQQMGMVYALDHDPVENKIYFAHTALKWIERANMDGSQRERLIEEGVDVPEGLAVDWIGRRFYWTDRGKSLIGRSDLNGKRSKIITKENISQPRGIAVHPMAKRLFWTDTGINPRIESSSLQGLGRLVIASSDLIWPSGITIDFLTDKLYWCDAKQSVIEMANLDGSKRRRLTQNDVGHPFAVAVFEDYVWFSDWAMPSVMRVNKRTGKDRVRLQGSMLKPSSLVVVHPLAKPGADPCLYQNGGCEHICKKRLGTAWCSCREGFMKASDGKTCLALDGHQLLAGGEVDLKNQVTPLDILSKTRVSEDNITESQHMLVAEIMVSDQDDCAPVGCSMYARCISEGEDATCQCLKGFAGDGKLCSDIDECEMGVPVCPPASSKCINTEGGYVCRCSEGYQGDGIHCLDIDECQLGEHSCGENASCTNTEGGYTCMCAGRLSEPGLICPDSTPPPHLREDDHHYSVRNSDSECPLSHDGYCLHDGVCMYIEALDKYACNCVVGYIGERCQYRDLKWWELRHAGHGQQQKVIVVAVCVVVLVMLLLLSLWGAHYYRTQKLLSKNPKNPYEESSRDVRSRRPADTEDGMSSCPQPWFVVIKEHQDLKNGGQPVAGEDGQAADGSMQPTSWRQEPQLCGMGTEQGCWIPVSSDKGSCPQVMERSFHMPSYGTQTLEGGVEKPHSLLSANPLWQQRALDPPHQMELTQ
On to B1, for which, in assay [1], the Affinity is on record as 32 percentage of control (EGF). Further, in assay [2], the Mitogenicity is on record as 56 percentage of control (EGF).

The values are drawn from patent US5547935A (Chiron Corporation, priority 1994, dated 1996).
